Experimental data from publication PMC6854716, “Redesigning N-glycosylation sites in a GH3 β-xylosidase improves the enzymatic efficiency” (Biotechnology for Biofuels, 2019).

Legend:
[1] = tested on: T1, O=[N+]([O-])c1ccc(O[C@@H]2OC[C@@H](O)[C@H](O)[C@H]2O)cc1; assay: purified protein; format: biochemical, Aspergillus nidulans; details: 0.05 M ammonium acetate pH 5.0, 60 °C, 1–20 mM substrate
T1 construct: homologous secreted expression in A. nidulans A773 (pEXPYR, glaA promoter, A. niger glucoamylase signal peptide); purified by DEAE and Superdex 200; N-glycosylated at N63, N340, N408, N419, N458, N621, N760

[2] = CD thermal melt, 20-100 °C; details: glycan lost; control: BxlBwt
[3] = western blot of crude extracellular extract, polyclonal anti-BxlB; details: glycan lost; control: BxlBwt
[4] = Michaelis-Menten kinetics, purified enzyme, pH 5.0, 60 °C; details: glycan lost; control: BxlBwt
[5] = far-UV CD secondary structure; details: glycan lost; control: BxlBwt

| Molecule | Km [1] [µM] | Vmax [1] [µmol/min/mg] | kcat [1] [s⁻¹] | kcat/Km [1] [M⁻¹ s⁻¹] | stability_or_folding, Tm [2] | expression_or_secretion [3] | enzymatic_activity, kcat_Km [4] | structure_or_conformation [5] |
| --- | --- | --- | --- | --- | --- | --- | --- | --- |
| BxlB^wt (GH3 β-xylosidase BxlB) (Aspergillus nidulans FGSC A4; N340Q/N408Q/N419Q/N458Q/N621Q/N63Q) | 3190 ± 220 | 3.42 | 4.37 | 1270 |  |  |  |  |
| BxlB^wt (GH3 β-xylosidase BxlB) (Aspergillus nidulans FGSC A4; N340Q/N408Q/N419Q/N621Q/N760Q) | 2910 ± 180 | 21.9 | 30.1 | 10300 |  |  |  |  |
| BxlB^wt (GH3 β-xylosidase BxlB) (Aspergillus nidulans FGSC A4; N340Q/N408Q/N419Q/N621Q/N63Q/N760Q) | 2710 ± 210 | 6.08 | 3.71 |  |  |  |  |  |
| BxlB^wt (GH3 β-xylosidase BxlB) (Aspergillus nidulans FGSC A4; N340Q/N408Q/N419Q/N621Q) | 2490 ± 430 | 17.3 | 23.7 | 9510 |  |  |  |  |
| BxlB^wt (GH3 β-xylosidase BxlB) (Aspergillus nidulans FGSC A4; N340Q/N408Q/N419Q/N458Q/N621Q) | 9920 ± 1050 | 4.12 | 5.64 | 570 |  |  |  |  |
| BxlB^wt (GH3 β-xylosidase BxlB) (Aspergillus nidulans FGSC A4; N340Q/N408Q/N419Q/N458Q/N621Q/N63Q/N760Q) | 2360 ± 110 | 10.1 | 13.9 | 5870 |  |  |  |  |
| BxlB^wt (GH3 β-xylosidase BxlB) (Aspergillus nidulans FGSC A4; N340Q/N408Q/N419Q/N621Q/N63Q) | 2810 ± 110 | 20.5 | 28 | 9940 |  |  |  |  |
| BxlB (GH3 β-xylosidase): BxlBN7 (protein) parent chain: MAVFKSWNLALLSSLFIPALCQSNYPDCTTGPLSELPICDTSLSPLERAKSLVSALTLEEKINNTGHEAAGSSRLGLPAYNWWNEALHGVAEKHGVSFEESGDFSYATSFPAPIVLGAAFNDALIRRVAEIISTEARAFSNSDHAGIDYWTPNVNPFKDPRWGRGQETPGEDPLHCSRYVKEFVGGLQGDDPEKPKVVATCKHLAAYDLEEWGGVSRFEFDAKVSAVDLLEYYLPPFKTCAVDASVGAFMCSYNALNGVPACADRYLLQTVLREHWGWEGPGHWVTGDCGAVERIQTYHHYVESGPEAAAAALNAGVDLDCGTWLPSYLGEAERQGLISNETLDAALTRLYTSLVQLGYFDPAEGQPLRSLGWDDVATSEAEELAKTVAIQGTVLLKNIDWTLPLKANGTLALIGPFINFTTELQSNYAGPAKHIPTMIEAAERLGYNVLTAPGTEVNSTSTDGFDDALAIAAEADALIFFGGIDNTVEEESLDRTRIDWPGNQEELILELAELGRPLTVVQFGGGQVDDSALLASAGVGAIVWAGYPSQAGGAGVFDVLTGKAAPAGRLPITQYPKSYVDEVPMTDMNLQPGTDNPGRTYRWYEDAVLPFGFGLHYTTFNVSWAKKAFGPYDAATLARGKNPSSNIVDTFSLAVTNTGDVASDYVALVFASAPELGAQPAPIKTLVGYSRASLIKPGETRKVDVEVTVAPLTRATEDGRVVLYPGEYTLLVDVNDEYPTAKFEIKGDVQVLEKFPLSGNDSD |  |  |  |  | decreases | decreases | decreases, 1.27 vs 6.34 | no change |
| BxlB (GH3 β-xylosidase): BxlBN5;7 (protein) parent chain: MAVFKSWNLALLSSLFIPALCQSNYPDCTTGPLSELPICDTSLSPLERAKSLVSALTLEEKINNTGHEAAGSSRLGLPAYNWWNEALHGVAEKHGVSFEESGDFSYATSFPAPIVLGAAFNDALIRRVAEIISTEARAFSNSDHAGIDYWTPNVNPFKDPRWGRGQETPGEDPLHCSRYVKEFVGGLQGDDPEKPKVVATCKHLAAYDLEEWGGVSRFEFDAKVSAVDLLEYYLPPFKTCAVDASVGAFMCSYNALNGVPACADRYLLQTVLREHWGWEGPGHWVTGDCGAVERIQTYHHYVESGPEAAAAALNAGVDLDCGTWLPSYLGEAERQGLISNETLDAALTRLYTSLVQLGYFDPAEGQPLRSLGWDDVATSEAEELAKTVAIQGTVLLKNIDWTLPLKANGTLALIGPFINFTTELQSNYAGPAKHIPTMIEAAERLGYNVLTAPGTEVNSTSTDGFDDALAIAAEADALIFFGGIDNTVEEESLDRTRIDWPGNQEELILELAELGRPLTVVQFGGGQVDDSALLASAGVGAIVWAGYPSQAGGAGVFDVLTGKAAPAGRLPITQYPKSYVDEVPMTDMNLQPGTDNPGRTYRWYEDAVLPFGFGLHYTTFNVSWAKKAFGPYDAATLARGKNPSSNIVDTFSLAVTNTGDVASDYVALVFASAPELGAQPAPIKTLVGYSRASLIKPGETRKVDVEVTVAPLTRATEDGRVVLYPGEYTLLVDVNDEYPTAKFEIKGDVQVLEKFPLSGNDSD |  |  |  |  | decreases, 55.1 vs 63.8 | decreases | increases, 9.94 vs 6.34 | no change |
| BxlB (GH3 β-xylosidase): BxlBN1;5 (protein) parent chain: MAVFKSWNLALLSSLFIPALCQSNYPDCTTGPLSELPICDTSLSPLERAKSLVSALTLEEKINNTGHEAAGSSRLGLPAYNWWNEALHGVAEKHGVSFEESGDFSYATSFPAPIVLGAAFNDALIRRVAEIISTEARAFSNSDHAGIDYWTPNVNPFKDPRWGRGQETPGEDPLHCSRYVKEFVGGLQGDDPEKPKVVATCKHLAAYDLEEWGGVSRFEFDAKVSAVDLLEYYLPPFKTCAVDASVGAFMCSYNALNGVPACADRYLLQTVLREHWGWEGPGHWVTGDCGAVERIQTYHHYVESGPEAAAAALNAGVDLDCGTWLPSYLGEAERQGLISNETLDAALTRLYTSLVQLGYFDPAEGQPLRSLGWDDVATSEAEELAKTVAIQGTVLLKNIDWTLPLKANGTLALIGPFINFTTELQSNYAGPAKHIPTMIEAAERLGYNVLTAPGTEVNSTSTDGFDDALAIAAEADALIFFGGIDNTVEEESLDRTRIDWPGNQEELILELAELGRPLTVVQFGGGQVDDSALLASAGVGAIVWAGYPSQAGGAGVFDVLTGKAAPAGRLPITQYPKSYVDEVPMTDMNLQPGTDNPGRTYRWYEDAVLPFGFGLHYTTFNVSWAKKAFGPYDAATLARGKNPSSNIVDTFSLAVTNTGDVASDYVALVFASAPELGAQPAPIKTLVGYSRASLIKPGETRKVDVEVTVAPLTRATEDGRVVLYPGEYTLLVDVNDEYPTAKFEIKGDVQVLEKFPLSGNDSD |  |  |  |  | decreases, 61.1 vs 63.8 | decreases | increases, 10.33 vs 6.34 | no change |
| BxlB (GH3 β-xylosidase): BxlBnon-glyc (protein) parent chain: MAVFKSWNLALLSSLFIPALCQSNYPDCTTGPLSELPICDTSLSPLERAKSLVSALTLEEKINNTGHEAAGSSRLGLPAYNWWNEALHGVAEKHGVSFEESGDFSYATSFPAPIVLGAAFNDALIRRVAEIISTEARAFSNSDHAGIDYWTPNVNPFKDPRWGRGQETPGEDPLHCSRYVKEFVGGLQGDDPEKPKVVATCKHLAAYDLEEWGGVSRFEFDAKVSAVDLLEYYLPPFKTCAVDASVGAFMCSYNALNGVPACADRYLLQTVLREHWGWEGPGHWVTGDCGAVERIQTYHHYVESGPEAAAAALNAGVDLDCGTWLPSYLGEAERQGLISNETLDAALTRLYTSLVQLGYFDPAEGQPLRSLGWDDVATSEAEELAKTVAIQGTVLLKNIDWTLPLKANGTLALIGPFINFTTELQSNYAGPAKHIPTMIEAAERLGYNVLTAPGTEVNSTSTDGFDDALAIAAEADALIFFGGIDNTVEEESLDRTRIDWPGNQEELILELAELGRPLTVVQFGGGQVDDSALLASAGVGAIVWAGYPSQAGGAGVFDVLTGKAAPAGRLPITQYPKSYVDEVPMTDMNLQPGTDNPGRTYRWYEDAVLPFGFGLHYTTFNVSWAKKAFGPYDAATLARGKNPSSNIVDTFSLAVTNTGDVASDYVALVFASAPELGAQPAPIKTLVGYSRASLIKPGETRKVDVEVTVAPLTRATEDGRVVLYPGEYTLLVDVNDEYPTAKFEIKGDVQVLEKFPLSGNDSD |  |  |  |  |  | decreases | decreases, 5.87 vs 6.34, BxlBnon-glyc catalytic efficiency was reduced by 7% | no change |
| BxlB (GH3 β-xylosidase): BxlBN1;7 (protein) parent chain: MAVFKSWNLALLSSLFIPALCQSNYPDCTTGPLSELPICDTSLSPLERAKSLVSALTLEEKINNTGHEAAGSSRLGLPAYNWWNEALHGVAEKHGVSFEESGDFSYATSFPAPIVLGAAFNDALIRRVAEIISTEARAFSNSDHAGIDYWTPNVNPFKDPRWGRGQETPGEDPLHCSRYVKEFVGGLQGDDPEKPKVVATCKHLAAYDLEEWGGVSRFEFDAKVSAVDLLEYYLPPFKTCAVDASVGAFMCSYNALNGVPACADRYLLQTVLREHWGWEGPGHWVTGDCGAVERIQTYHHYVESGPEAAAAALNAGVDLDCGTWLPSYLGEAERQGLISNETLDAALTRLYTSLVQLGYFDPAEGQPLRSLGWDDVATSEAEELAKTVAIQGTVLLKNIDWTLPLKANGTLALIGPFINFTTELQSNYAGPAKHIPTMIEAAERLGYNVLTAPGTEVNSTSTDGFDDALAIAAEADALIFFGGIDNTVEEESLDRTRIDWPGNQEELILELAELGRPLTVVQFGGGQVDDSALLASAGVGAIVWAGYPSQAGGAGVFDVLTGKAAPAGRLPITQYPKSYVDEVPMTDMNLQPGTDNPGRTYRWYEDAVLPFGFGLHYTTFNVSWAKKAFGPYDAATLARGKNPSSNIVDTFSLAVTNTGDVASDYVALVFASAPELGAQPAPIKTLVGYSRASLIKPGETRKVDVEVTVAPLTRATEDGRVVLYPGEYTLLVDVNDEYPTAKFEIKGDVQVLEKFPLSGNDSD |  |  |  |  | decreases | decreases | decreases, 0.57 vs 6.34 | no change |
